In patent publication US20220119534A1 (DRAGONFLY THERAPEUTICS, published 2022):
Positions count from the first letter of the chain named.

How the values were obtained:
[1] = biological target: T1, mFc-hNKG2D (human, UniProt P26718 73-216); assay: SPR Biacore 8K 37 C; mFc-hNKG2D captured on anti-mFc chip, TriNKET as analyte; steady state fit; control sample, n=2
T1 construct: extracellular domain; Made in house (Dragonfly Tx); the order of tag and ECD follows the name mFc-hNKG2D; also called mFc-tagged human NKG2D; not shown: mouse Fc tag
T1 sequence (looked up): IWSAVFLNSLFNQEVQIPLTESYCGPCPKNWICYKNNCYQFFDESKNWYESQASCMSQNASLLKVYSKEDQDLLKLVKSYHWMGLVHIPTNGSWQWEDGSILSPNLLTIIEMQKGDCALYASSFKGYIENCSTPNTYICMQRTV

[2] = biological target: T2, mFc-cNKG2D (cynomolgus monkey, UniProt P61252 73-216); assay: SPR Biacore 37 C; mFc-tagged cyno NKG2D dimer, TriNKET as analyte; steady state affinity fit; average of 4
T2 construct: extracellular domain; Made in house (Dragonfly Tx); also called recombinant cyno NKG2D extracellular domain (ECD); mFc-tagged cyno NKG2D dimer; not shown: mouse Fc tag
T2 sequence (looked up): T1 sequence (looked up) with D43N, T133I

B1: F3'-1602 TriNKET (bispecific antibody, human IgG1, kappa)
chain: QLQLQESGPGLVKPSETLSLTCTVSGFSLTNYGLHWIRQPPGKCLEWIGVIWSGGKTDYNPSLKSRVTISKDTSKNQFSLKLSSVQAADTAVYYCAKYDYDDSLDYWGQGTLVTVSSGGGGSGGGGSGGGGSGGGGSDIQMTQSPSSLSASVGDRVTITCHASQNINFWLSWYQQKPGKAPKLLIYEASNLHTGVPSRFSGSGSGTRFTLTISSLQPEDIATYYCQQSHSYPLTFGCGTKLEIKGSDKTHTCPPCPAPELLGGPSVFLFPPKPKDTLMISRTPEVTCVVVDVSHEDPEVKFNWYVDGVEVHNAKTKPREEQYNSTYRVVSVLTVLHQDWLNGKEYKCKVSNKALPAPIEKTISKAKGQPREPRVYTLPPCRDELTKNQVSLTCLVKGFYPSDIAVEWESNGQPENNYKTTPPVLVSDGSFTLYSKLTVDKSRWQQGNVFSCSVMHEALHNHYTQKSLSLSPG
heavy: EVQLVESGGGLVKPGGSLRLSCAASGFTFSSYSMNWVRQAPGKGLEWVSSISSSSSYIYYADSVKGRFTISRDNAKNSLYLQMNSLRAEDTAVYYCARGAPIGAAAGWFDPWGQGTLVTVSSASTKGPSVFPLAPSSKSTSGGTAALGCLVKDYFPEPVTVSWNSGALTSGVHTFPAVLQSSGLYSLSSVVTVPSSSLGTQTYICNVNHKPSNTKVDKKVEPKSCDKTHTCPPCPAPELLGGPSVFLFPPKPKDTLMISRTPEVTCVVVDVSHEDPEVKFNWYVDGVEVHNAKTKPREEQYNSTYRVVSVLTVLHQDWLNGKEYKCKVSNKALPAPIEKTISKAKGQPREPQVCTLPPSRDELTENQVSLTCLVKGFYPSDIAVEWESNGQPENNYKTTPPVLDSDGSFFLYSWLTVDKSRWQQGNVFSCSVMHEALHNHYTQKSLSLSPG
light: DIQMTQSPSSVSASVGDRVTITCRASQGISSWLAWYQQKPGKAPKLLIYAASSLQSGVPSRFSGSGSGTDFTLTISSLQPEDFATYYCQQGVSFPRTFGGGTKVEIKRTVAAPSVFIFPPSDEQLKSGTASVVCLLNNFYPREAKVQWKVDNALQSGNSQESVTEQDSKDSTYSLSSTLTLSKADYEKHKVYACEVTHQGLSSPVTKSFNRGEC
notes: Trispecific F3' format: CLEC12A scFv-Fc paired with NKG2D Fab-Fc; Stressed and control samples of the stability studies are the same molecule; also called AB0237
B1 showed a Kd [1] of 791 nM and a Kd [2] of 828 nM.
